The text below walks through data of PMC10977697 (PLOS ONE, 2024).

The labels stand for the following.
T1: Notch2Long (Notch2 EGF6-EGF12) (human, UniProt Q04721 219-418, biotin on the N-terminal Avi tag (enzymatic))
T1 construct: also called N2L protein; hNotch2; not shown: Avi tag, N-terminal, kept
T1 sequence (looked up): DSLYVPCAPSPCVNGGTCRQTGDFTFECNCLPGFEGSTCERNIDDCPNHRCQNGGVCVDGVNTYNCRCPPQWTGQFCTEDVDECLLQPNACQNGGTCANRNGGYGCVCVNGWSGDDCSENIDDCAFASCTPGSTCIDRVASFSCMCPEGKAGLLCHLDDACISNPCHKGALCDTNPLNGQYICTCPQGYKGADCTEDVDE

T2: Notch2NRR (Notch2 NRR domain) (human, UniProt Q04721 1423-1677, biotin on the N-terminal Avi tag (enzymatic))
T2 construct: also called NRR protein; not shown: Avi tag, N-terminal, kept
T2 sequence (looked up): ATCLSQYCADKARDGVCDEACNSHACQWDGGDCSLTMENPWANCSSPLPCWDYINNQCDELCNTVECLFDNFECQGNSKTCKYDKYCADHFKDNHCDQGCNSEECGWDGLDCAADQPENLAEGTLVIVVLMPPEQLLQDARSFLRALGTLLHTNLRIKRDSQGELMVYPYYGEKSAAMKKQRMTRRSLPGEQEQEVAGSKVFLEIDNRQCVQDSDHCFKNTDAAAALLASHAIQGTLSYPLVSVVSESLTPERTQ

T3: Notch2Long (Notch2 EGF6-EGF12) (human, UniProt Q04721 219-418, biotin via the N-terminal Avi tag (enzymatic biotinylation))
T3 construct: also called N2L protein; hNotch2; not shown: Avi tag, N-terminal, kept
T3 sequence (looked up): T1 sequence (looked up)

T4 sequence (Q92743 23-480): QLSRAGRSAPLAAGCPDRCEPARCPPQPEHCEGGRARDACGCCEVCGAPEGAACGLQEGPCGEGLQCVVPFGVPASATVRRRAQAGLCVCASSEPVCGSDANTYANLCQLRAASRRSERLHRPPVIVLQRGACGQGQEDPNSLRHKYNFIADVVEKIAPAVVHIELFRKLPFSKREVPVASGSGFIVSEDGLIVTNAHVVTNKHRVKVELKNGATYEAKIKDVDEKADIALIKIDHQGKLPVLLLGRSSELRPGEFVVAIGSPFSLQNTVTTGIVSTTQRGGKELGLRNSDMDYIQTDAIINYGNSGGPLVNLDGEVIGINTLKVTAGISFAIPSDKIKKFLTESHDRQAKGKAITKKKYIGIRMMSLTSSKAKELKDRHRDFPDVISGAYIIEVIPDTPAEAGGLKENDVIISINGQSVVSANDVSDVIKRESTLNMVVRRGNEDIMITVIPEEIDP

The target of one test is T1, Notch2Long (Notch2 EGF6-EGF12). Nature of the test: ELISA. Particulars: one partner purified. A general note: An ELISA detects its analyte on a solid surface through an enzyme-linked reagent.
GCIKSHLWCPHGGRCEAGCICEVWIQCG (designed binder) [N2L.EET31.43.30 displayed on M13 phage (p3)]: the ELISA was 2.2 and the “s/n Ratio” value was found to be 10.7.

On to GCIKSHLWCDPRVSCEAGCICEVWIQCG (designed binder) [N2L.EET31.43.78 displayed on M13 phage (p3)], for which the ELISA is 1.9 and the “s/n Ratio” value came to 10.3. The corresponding values for GCIKSHLWCDPRKSCEAGCICEVWIQCG (designed binder) [N2L.EET31.43.88 displayed on M13 phage (p3)] are 1.9 and 10.2.

Regarding GCIKSHLWCPPPRRCEAGCICEVWIQCG (designed binder) [N2L.EET31.43.35 displayed on M13 phage (p3)], the ELISA came out at 2.1 and the “s/n Ratio” value came out at 11.6.

GCIRSHLWCPPSASCLAGCVCEVWIQCG (designed binder) [N2L.EET31.32.70 displayed on M13 phage (p3)]: the ELISA is 1.9 and the “s/n Ratio” value stood at 7.3.

In the case of GCIRSHVWCKQDSDCEAGCICEIWIQCG (designed binder) [N2L.EET31.43.43 displayed on M13 phage (p3)], the ELISA amounted to 2 and the “s/n Ratio” value came out at 10.2. GCIKSHLWCPSDERCLAGCVCEVWIQCG (designed binder, also called N2L.31.L2.32) [N2L.EET31.32 displayed on M13 phage (p3)]: the ELISA was 0.5 and the “s/n Ratio” value came to 3.7. The corresponding values for GCIKSHLWCPRHEKCLAGCVCEVWIRCG (designed binder) [N2L.EET31.32.29 displayed on M13 phage (p3)] are 2 and 9.3. The corresponding values for GCGWTLRHCKQDSDCLAGCVCRPIWYCG (designed binder) [N2L.EET03.10 displayed on M13 phage] are 3 and 48.4. For GCIKSHLWCKQDSDCEAGCICEVWIQCG (designed binder, also called N2L.31.L34.43) [N2L.EET31.43 displayed on M13 phage (p3)], the ELISA is 0.7 and the “s/n Ratio” value turned out to be 5.1. The corresponding values for GCIRSQLWCPSDERCLAGCVCEVWIKCG (designed binder) [N2L.EET31.32.80 displayed on M13 phage (p3)] are 2.1 and 7.6. The corresponding values for GCIKSHLWCDPRKDCEAGCICEVWIQCG (designed binder) [N2L.EET31.43.75 displayed on M13 phage (p3)] are 2.1 and 10.3. For GCVRSHVWCPSDERCLAGCVCEIWIRCG (designed binder) [N2L.EET31.32.85 displayed on M13 phage (p3)], the ELISA was found to be 2 and the “s/n Ratio” value stood at 4.3. As to GCIKSHLWCPKTSDCEAGCICEVWIQCG (designed binder) [N2L.EET31.43.24 displayed on M13 phage (p3)], the ELISA came to 2.1 and the “s/n Ratio” value was determined as 10.5. On to GCIKSHLWCPGKERCLAGCICEIWIQCG (designed binder) [N2L.EET31.32.48 displayed on M13 phage (p3)], for which the ELISA is 1.9 and the “s/n Ratio” value was 7.2. For the molecule GCIKSHLWCHPKLDCEAGCICEVWIQCG (designed binder) [N2L.EET31.43.18 displayed on M13 phage (p3)], the ELISA came to 2.1 and the “s/n Ratio” value was 10.2. As for GCVRSHLWCKQDSDCEAGCICEVWIKCG (designed binder) [N2L.EET31.43.73 displayed on M13 phage (p3)], the ELISA was 2.3 and the “s/n Ratio” value is 11. The corresponding values for GCIKSHLWCPPSDYCLAGCVCEVWIQCG (designed binder) [N2L.EET31.32.21 displayed on M13 phage (p3)] are 1.8 and 9.1. Turning to GCIKSHLWCPRAEKCLAGCICEVWIQCG (designed binder) [N2L.EET31.32.33 displayed on M13 phage (p3)], the ELISA worked out at 1.9 and the “s/n Ratio” value was found to be 9.3. As for GCIKSHLWCPRDSDCLAGCVCEVWIQCG (designed binder) [N2L.EET31.32.13 displayed on M13 phage (p3)], the ELISA came to 2.2 and the “s/n Ratio” value amounted to 10.2. Turning to GCIRSHVWCKQDSDCEAGCICEVWVKCG (designed binder) [N2L.EET31.43.64 displayed on M13 phage (p3)], the ELISA was determined as 2 and the “s/n Ratio” value came to 8.8.

In a further test the target is T2, Notch2NRR (Notch2 NRR domain). The experiment in a line: ELISA. Particulars: one partner purified.
For the molecule GCMPRYGGWHCKQDSDCLAGCVCGPNGFCG (designed binder) [N2N-EET-63 displayed on M13 phage], the ELISA stood at 1.5 and the s/n Ratio came to 21.3. In the case of GCRPRFKGWTCKQDSDCLAGCVCGPNGFCG (designed binder) [N2N-EET-n3 displayed on M13 phage], the ELISA was 2.1 and the s/n Ratio stood at 33.1. GCRPRWGGWHCKQDSDCLAGCVCGPNGFCG (designed binder) [N2N-EET-57 displayed on M13 phage]: the ELISA turned out to be 3.8 and the s/n Ratio stood at 30.9. The corresponding values for GCQQRRWGGWQQCKQDSDCLAGCVCGPNGFCG (designed binder) [N2N-EET-33 displayed on M13 phage] are 3.6 and 28.9. The corresponding values for GCGQQRWGGWPLCKQDSDCLAGCVCGPNGFCG (designed binder) [N2N-EET-45 displayed on M13 phage] are 3.5 and 14.9.

For GCGQKRMGGWQWCKQDSDCLAGCVCGPNGFCG (designed binder) [N2N-EET-n13 displayed on M13 phage], the ELISA came out at 3.4 and the s/n Ratio was 53.9.

The next test has as its target T4, HtrA1 (human, UniProt Q92743 23-480, biotin on lysines (Sulfo-NHS-LC-biotin) for panning and SPR).
T4 construct: also called HtrA1 FL; human full-length HtrA1
Nature of the test: ELISA. Particulars: one partner purified.
As for ECKGKGAKCSIQWSVYPWKVCCTGSCRSGKC (designed binder, Conotoxin-MVIIA scaffold) [HtrA1_CnTx83 displayed on M13 phage], the ELISA came out at 1.1 and the s/n Ratio was 16.1. The corresponding values for ACKGVFDACTWKNWRQSRSRECCPNAVCSDKHKWCKWKL (designed binder, Huwentoxin scaffold) [HtrA1_HwTx69 displayed on M13 phage] are 0.9 and 9.6. For GCHRPWWQLWGLCKQDSDCLAGCVCGPNGFCG (designed binder) [HtrA1_EET76 displayed on M13 phage], the ELISA was found to be 1 and the s/n Ratio was found to be 13.7. Turning to WIPCISAALGCSCKNKVCYFLYQICGESCV (designed binder) [HtrA1_CirA38 displayed on M13 phage], the ELISA was 2.1 and the s/n Ratio worked out at 31.9.

WIPCISAALGCSCKNKVCYIFSKHLCGESCV (designed binder) [HtrA1_CirA65 displayed on M13 phage]: the ELISA amounted to 2.2 and the s/n Ratio amounted to 33.9.

Another test addresses T3, Notch2Long (Notch2 EGF6-EGF12). The experiment in a line: SPR. Conditions: both partners purified.
The Kd is the equilibrium constant for the complex coming apart. For the molecule GCGWTLRHCKQDSDCLAGCVCEPKWWCG (designed binder) [N2L.EET03.63], the affinity, expressed as Kd, was 44.8 µM. The same measure, in the same setting: for GCGWTLRHCKQDSDCLAGCVCEPIWWCG (designed binder) [N2L.EET03.18] the value was 8.9 µM. As to GCGWTLKHCKQDSDCLAGCVCEPIWWCG (designed binder) [N2L.EET03.30], the Kd came out at 13.1 µM.
